The data set deals with the molecule itself. Briefly: Western blot of cell lysate under non-denatured or denatured conditions.

B1: Flag-EGFP-tagged SPESP1 (equatorial segment protein 1) expressed in CHO-K1 cells (natural protein, mouse, UniProt Q9D5A0 19-399, looked up)
chain: YPTITVLPDEEQNLNHYVHILQNLIMSVPTKEQDLGKKLSSSRTVDSAEPRSLASKVLLTPGLVSAQDVTPESDVLIRPVDETTNSRTRGFTLRRRRTQSTAFWSIRPNNISVVLRTEEPFIEKEPEPELESSRLPTEPEPELEPEPEPVAESRQMSEPEEELVTSTTPNKELTGTSRISSMATQPANTQATRITVTVKTTSTMDVSTDSEDVPQLSGQSEIPSAEDLPGRHSLNTRHEDILKKISNINAEIQQGLLGGNNSPEFKEFIKASREHLKRSLALAAAAEHKLEQMYGSNVFPEGRTSDPDNDMEMIINMLYNSRSKLSDYFNIKRVPSELREKASVVNAELRKILCVDQVEMQSLIKKLLSNNMKILNILNVP
modifications: O-GalNAc glycans (VVA-positive on blot); sites on this construct not stated
As to B1, the “stoichiometry N” value was 2.

Values taken from PMC11920050 (Nature Communications, 2025).
